In article PMC9635822 one finds interaction force between the two cells, force needed to pull apart the new cells of the cluster and pulling force up to which the two cells remained attached data, which are given here for three substances.

Test in all cases: optical tweezers, force between two trapped cells
Experiment [1] has as its target AGA2-SpyTag displayed on S. cerevisiae cells (ScA).
Experiment [2] has as its target AGA2-SpyCatcher displayed on S. cerevisiae cells (ScB).
The target of experiment [3] is AGA2-CL7 displayed on S. cerevisiae cells (ScΦ) (UniProt Q47112).
Experiment [4] deals with AGA2-Im7 displayed on S. cerevisiae cells (ScΨ) (UniProt Q03708).
Chain of UniProt Q03708 (Q03708 whole entry): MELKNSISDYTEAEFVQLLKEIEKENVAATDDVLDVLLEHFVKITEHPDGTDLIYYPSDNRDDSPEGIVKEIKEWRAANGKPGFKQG

Substance “AGA2-SpyTag displayed on S. cerevisiae cells (ScA) (peptide)” yielded an interaction force between the two cells in experiment [1] below 10 pN. In experiment [2], this substance registered a force needed to pull apart the new cells of the cluster below 248 pN and a pulling force up to which the two cells remained attached of 335 pN.

In experiment [3], “AGA2-SpyCatcher displayed on S. cerevisiae cells (ScB) (designed binder)” yielded an interaction force between the two cells below 10 pN.

Turning to “AGA2-CL7 displayed on S. cerevisiae cells (ScΦ) (from UniProt Q47112 371-576) (domain or fragment)”, in experiment [4], the force needed to pull apart the new cells of the cluster was below 351 pN and the pulling force up to which the two cells remained attached is 335 pN.
